{"source": "patent US20190367572A1", "target": "sonic hedgehog protein (SHH), endogenous in rat MPG/CN organ culture (rat) (UniProt Q63673)", "sequence (Q63673 25-198 limits assumed)": "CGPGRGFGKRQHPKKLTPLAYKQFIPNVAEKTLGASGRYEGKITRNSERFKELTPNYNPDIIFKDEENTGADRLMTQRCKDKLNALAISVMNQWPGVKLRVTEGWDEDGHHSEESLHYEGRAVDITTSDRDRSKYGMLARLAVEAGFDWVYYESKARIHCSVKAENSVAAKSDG", "test": "cell-based or functional assay", "data": [{"substance": "5E1 SHH inhibitor (antibody)", "values": [{"measurement": "neurite formation (growth cones per mm) in uninjured MPG/CN organ culture, three days", "value": 86, "unit": "% reduction"}, {"measurement": "neurite formation (growth cones per mm) in uninjured MPG/CN organ culture, three days (fold reduction)", "value": 7.3}]}]}
